In patent US20220363716A1:

Assays:
[1] = target: human serum-derived IgG (SIGMA, #14506, Lot #SLBR0560V) (human); test: elution at pH 3.5 from the 1-ml Z33 column, A280
[2] = target: human serum-derived IgG (SIGMA, #14506, Lot #SLBR0560V) (human); test: frontal loading of 0.67 mg/ml IgG on a 1-ml Z33 column (912 nmol), 20 mM phosphate pH 7.0

Substance: IgG-bound peptide Z33 Acetyl-…-NH2, immobilized on a HiTrap NHS-activated HP column
- amount of the antibody bound to the column [1]: 19 mg
- dynamic binding capacity (DBC) [2]: 26 mg
